Data as given in patent publication US20140295512A1, “Ketol-Acid Reductoisomerases With Improved Performance Properties” (CALIFORNIA INSTITUTE OF TECHNOLOGY, priority 2011, published 2014).
Residue numbers refer to the chain shown, from its start. Numbers in names are those of the source.

Legend:
Type in all cases: biochemical
[1] = KARI enzyme assay on cell lysates with NADH and NADPH as cofactors
Protocol: In this example, different KARI enzymes (Table 7) were screened for their activity with NADH and NADPH as cofactor. The enzymes were expressed in an S. cerevisiae strain by means of 2 micron plasmids carrying the KARI genes under the control of the S. cerevisiae TDH3 promoter. The transformants were cultivated in shake flask fermentations as described below and samples were taken after 44 h, centrifuged at 4000×g for 10 mins at 4° C. and the cell pellets were stored at −80° C. until analysis. The pellets were lysed by bead beating and the lysates were analyzed by KARI activity assay as described below using NADH and NADPH as cofactors.
Patched cells (or single colonies) grown on YPD+G418 plates at 30° C. were mixed into 3 mL YP+12% dextrose+200 mM MES, pH 6.5+G418, in 14 mL culture tubes and incubated at 250 RPM, 30° C. for ˜24 hours. The cells from the cultures were used to inoculate YP+12% dextrose+200 mM MES, pH 6.5+G418, in non-baffled flasks with a vented grey screw-caps at OD600 0.01. The cultures were incubated at 250 RPM, 30° C. for 24 hours, diluted 1:3 and incubated for another 20 h at 250 RPM, 30° C. Samples for enzyme assay pellets and protein quantification pellets were taken from each shake flask, and cell-free supernatant was used to measure glucose levels in shake flasks.
The assay and no substrate control reactions were performed in triplicate for each sample. The following stock solutions were prepared: 1 M potassium phosphate, pH 7, 0.1 M MgCl2, 100 mM DTT, 25 mM NADH or NADPH, 200 mM 2-acetolactate. The 2-acetolactate was made fresh each time by mixing 50 μL Ethyl-2-acetoxy-2-methylacetoacetate (EAMAA) with 990 μL water. Gradually 260 μL of 2 N NaOH was added in 10 μL increments to the EAMAA water mixture. After each addition the sample was vortexed for 15 seconds, and the procedure repeated until the entire 260 μL of 2 N NaOH was added. Afterwards the solution was mixed on an orbital shaker for 20 min (Krampitz, 1957). KARI reaction buffer (100 μL per reaction) was prepared to the following concentrations: 250 mM potassium phosphate, pH 7, 10 mM MgCl2, 1 mM DTT, 0.2 mM NADH or NADPH, 10 mM 2-acetolactate. For the no substrate controls, the 2-acetolactate was substituted with water. 10 μL of each lysate were transferred into a 96 well half area assay plate. The reaction was started with 90 μL of reaction buffer to each well using a multichannel pipette. The samples were mixed immediately. The samples were read at 340 nm every 10 s for 5 min.

[2] = KARI assay of purified S. exigua KARI and variants with NADH (Examples 6-9); conditions: for U/mg NADH (specific activity): cofactor NADH; for Ratio NADH/NADPH (U/mg): specific activity ratio; for Km: read-out: Km for cofactor NADH
Protocol: (§1) S. exigua KARI activity or activities of its variants were assayed kinetically by monitoring the decrease in NADPH or NADH concentration by measuring the change in absorbance at 340 nm. An assay buffer was prepared containing 100 mM potassium phosphate pH 7.0, 1 mM DTT, 2.5 mM (S)-2-acetolactate, and 10 mM MgCl2 (final concentrations in the 1-mL assay, accounting for dilution with enzyme and cofactor). Fifty μL purified enzyme and 930 μL of the assay buffer were placed into a 1-mL cuvette. The reaction was initiated by addition of 20 μL NADPH or NADH (200 μM final concentration) for a general activity assay. Michaelis-Menten constants of the cofactors were determined with varying concentrations of NADPH (200-12 μM final) or NADH (200-6 μM final).

[3] = KARI assay of purified S. exigua KARI and variants with NADPH (Examples 6-9); conditions: for U/mg NADPH (specific activity): cofactor NADPH; for Km: read-out: Km for cofactor NADPH
Protocol: as §1

B1: Zm: Zymomonas mobilis KARI homolog (protein, UniProt Q9X5F8 1-339, looked up)
Ketol-acid reductoisomerase …: MKVYYDSDADLGLIKSKKIAILGYGSQGHAHAQNLRDSGVAEVAIALRPDSASVKKAQDAGFKVLTNAEAAKWADILMILAPDEHQAAIYAEDLKDNLRPGSAIAFAHGLNIHFGLIEPRKDIDVFMIAPKGPGHTVRSEYVRGGGVPCLVAVDQDASGNAHDIALAYASGIGGGRSGVIETTFREEVETDLFGEQAVLCGGLTALITAGFETLTEAGYAPEMAFFECMHEMKLIVDLIYEAGIANMRYSISNTAEYGDIVSGPRVINEESKKAMKAILDDIQSGRFVSKFVLDNRAGQPELKAARKRMAAHPIEQVGARLRKMMPWIASNKLVDKARN
- Specific Activity with NADH/Specific Activity with NADPH [1]: 0.074
- NADH-Dependent Specific Activity ([1]; empty vector control subtracted): 0.002 U/mg lysate

B2: Se1_KARI^JB7-his6: S. exigua KARI variant S63Q (protein, UniProt D0WGK0 1-342, looked up, variant S63Q)
Ketol-acid reductoisomerase …: MSVKTKEKEMAVTILYEQDVDPKVIQGLKVGIIGYGSQGHAHALNLMDSGVDVRVGLREGSSQWKTAEEAGLKVTDMDTAAEEADVIMVLVPDEIQPKVYQEHIAAHLKAGNTLAFAHGFNIHYGYIVPPEDVNVIMCAPKGPGHIVRRQFTEGSGVPDLACVQQDATGNAWDIVLSYCWGVGGARSGIIKATFAEETEEDLFGEQAVLCGGLVELVKAGFETLTEAGYPPELAYFECYHEMKMIVDLMYESGIHFMNYSISNTAEYGEYYAGPKVINEQSREAMKEILKRIQDGSFAQEFVDDCNNGHKRLLEQREAINTHPIETTGAQIRSMFSWIKKED
modifications: His6 tag
notes: S. exigua KARI variant S63Q
- kcat NADH [2]: 0.69 s⁻¹
- U/mg NADH (specific activity) [2]: 0.28 U/mg
- Ratio NADH/NADPH (U/mg) [2]: 0.47
- kcat NADPH [3]: 1.5 s⁻¹
- U/mg NADPH (specific activity) [3]: 0.6 U/mg

B3: Se1_KARI^EA8-his6: S. exigua KARI variant L57S (protein, UniProt D0WGK0 1-342, looked up, variant L57S)
Ketol-acid reductoisomerase …: B2 Ketol-acid reductoisomerase … with L57S, Q63S
modifications: His6 tag
notes: S. exigua KARI variant L57S
- U/mg NADH (specific activity) [2]: 0.19 U/mg
- Ratio NADH/NADPH (U/mg) [2]: 0.76
- U/mg NADPH (specific activity) [3]: 0.25 U/mg

B4: Se1_KARI^1A8: S. exigua KARI variant G60V, I95V, V99L (protein, UniProt D0WGK0 1-342, looked up, variant G60V I95V V99L)
Ketol-acid reductoisomerase …: B2 Ketol-acid reductoisomerase … with G60V, Q63S, I95V, V99L
- kcat NADH [2]: 0.65 s⁻¹
- U/mg NADH (specific activity) [2]: 0.26 U/mg
- Ratio NADH/NADPH (U/mg) [2]: 0.8
- kcat NADPH [3]: 0.79 s⁻¹
- U/mg NADPH (specific activity) [3]: 0.32 U/mg

B5: Se1_KARI^MH9-his6: S. exigua KARI variant V99L (protein, UniProt D0WGK0 1-342, looked up, variant V99L)
Ketol-acid reductoisomerase …: B2 Ketol-acid reductoisomerase … with Q63S, V99L
modifications: His6 tag
notes: S. exigua KARI variant V99L
- U/mg NADH (specific activity) [2]: 0.21 U/mg
- Ratio NADH/NADPH (U/mg) [2]: 0.64
- U/mg NADPH (specific activity) [3]: 0.34 U/mg

B6: Se1_NKR^Gen6-his6: S. exigua KARI variant S61D, S63D, I95V (protein, UniProt D0WGK0 1-342, looked up, variant S61D S63D I95V)
Ketol-acid reductoisomerase …: B2 Ketol-acid reductoisomerase … with S61D, Q63D, I95V
modifications: His6 tag
notes: S. exigua KARI variant S61D, S63D, I95V
- kcat NADH [2]: 1 ± 0.01 s⁻¹
- kcat/Km ratio NADH/NADPH (cofactor specificity) [2]: 87
- U/mg NADH (specific activity) [2]: 0.4 ± 0.01 U/mg
- Km [2]: 47 ± 15 µM
- Ratio NADH/NADPH (U/mg) [2]: 5.7
- kcat NADPH [3]: 0.18 ± 0.00 s⁻¹
- U/mg NADPH (specific activity) [3]: 0.07 ± 0.0 U/mg
- Km [3]: > 1000 µM

B7: Se1_KARI^CD10-his6: S. exigua KARI variant Y35H (protein, UniProt D0WGK0 1-342, looked up, variant Y35H)
Ketol-acid reductoisomerase …: B2 Ketol-acid reductoisomerase … with Y35H, Q63S
modifications: His6 tag
notes: S. exigua KARI variant Y35H
- U/mg NADH (specific activity) [2]: 0.13 U/mg
- Ratio NADH/NADPH (U/mg) [2]: 0.68
- U/mg NADPH (specific activity) [3]: 0.19 U/mg

B8: Se1_KARI^AC1: S. exigua KARI variant S63D, I95A (protein, UniProt D0WGK0 1-342, looked up, variant S63D I95A)
Ketol-acid reductoisomerase …: B2 Ketol-acid reductoisomerase … with Q63D, I95A
- kcat NADH [2]: 0.5 s⁻¹
- kcat/Km ratio NADH/NADPH (cofactor specificity) [2]: 0.3
- U/mg NADH (specific activity) [2]: 0.2 U/mg
- Km [2]: 68 µM
- Ratio NADH/NADPH (U/mg) [2]: 0.5
- kcat NADPH [3]: 1 s⁻¹
- U/mg NADPH (specific activity) [3]: 0.4 U/mg
- Km [3]: 45 µM

B9: Se1_KARI^LE1-his6: S. exigua KARI variant I95V (protein, UniProt D0WGK0 1-342, looked up, variant I95V)
Ketol-acid reductoisomerase …: B2 Ketol-acid reductoisomerase … with Q63S, I95V
modifications: His6 tag
notes: S. exigua KARI variant I95V
- kcat NADH [2]: 0.74 s⁻¹
- U/mg NADH (specific activity) [2]: 0.3 U/mg
- U/mg NADH (specific activity) ([2]; listed as Se1_KARI^LE1): 0.30 U/mg
- Km [2]: 19 µM
- Ratio NADH/NADPH (U/mg) [2]: 0.8
- kcat NADPH [3]: 1.00 s⁻¹
- U/mg NADPH (specific activity) [3]: 0.4 U/mg
- U/mg NADPH (specific activity) ([3]; listed as Se1_KARI^LE1): 0.40 U/mg

B10: Se1_KARI^LE9-his6: S. exigua KARI variant I95T (protein, UniProt D0WGK0 1-342, looked up, variant I95T)
Ketol-acid reductoisomerase …: B2 Ketol-acid reductoisomerase … with Q63S, I95T
modifications: His6 tag
notes: S. exigua KARI variant I95T
- U/mg NADH (specific activity) [2]: 0.32 U/mg
- Ratio NADH/NADPH (U/mg) [2]: 0.58
- U/mg NADPH (specific activity) [3]: 0.56 U/mg

B11: Se1_KARI^1H1: S. exigua KARI variant R58P, S61C (protein, UniProt D0WGK0 1-342, looked up, variant R58P S61C)
Ketol-acid reductoisomerase …: B2 Ketol-acid reductoisomerase … with R58P, S61C, Q63S
- kcat NADH [2]: 0.50 s⁻¹
- U/mg NADH (specific activity) [2]: 0.20 U/mg
- Ratio NADH/NADPH (U/mg) [2]: 0.8
- kcat NADPH [3]: 0.65 s⁻¹
- U/mg NADPH (specific activity) [3]: 0.26 U/mg

B12: Se1_KARI^14B7: S. exigua KARI variant Y35H, S63D, I95V (protein, UniProt D0WGK0 1-342, looked up, variant Y35H S63D I95V)
Ketol-acid reductoisomerase …: B2 Ketol-acid reductoisomerase … with Y35H, Q63D, I95V
- kcat NADH [2]: 0.45 s⁻¹
- U/mg NADH (specific activity) [2]: 0.18 U/mg
- Ratio NADH/NADPH (U/mg) [2]: 0.32
- kcat NADPH [3]: 1.4 s⁻¹
- U/mg NADPH (specific activity) [3]: 0.56 U/mg

B13: Se1_KARI^13G6: S. exigua KARI variant G60V, I95A (protein, UniProt D0WGK0 1-342, looked up, variant G60V I95A)
Ketol-acid reductoisomerase …: B2 Ketol-acid reductoisomerase … with G60V, Q63S, I95A
- kcat NADH [2]: 0.74 s⁻¹
- kcat/Km ratio NADH/NADPH (cofactor specificity) [2]: 0.03
- U/mg NADH (specific activity) [2]: 0.30 U/mg
- Km [2]: 34 µM
- Ratio NADH/NADPH (U/mg) [2]: 0.8
- kcat NADPH [3]: 0.90 s⁻¹
- U/mg NADPH (specific activity) [3]: 0.37 U/mg
- Km [3]: < 1 µM

B14: Se1_KARI^2C6: S. exigua KARI variant L57V, R58P (protein, UniProt D0WGK0 1-342, looked up, variant L57V R58P)
Ketol-acid reductoisomerase …: B2 Ketol-acid reductoisomerase … with L57V, R58P, Q63S
- kcat NADH [2]: 0.55 s⁻¹
- U/mg NADH (specific activity) [2]: 0.22 U/mg
- Ratio NADH/NADPH (U/mg) [2]: 0.7
- kcat NADPH [3]: 0.80 s⁻¹
- U/mg NADPH (specific activity) [3]: 0.33 U/mg
